Measured values from patent US20230192835A1 (PROMETHEUS BIOSCIENCES, published 2023).

T1: membrane-associated human TL1A on transfected HEK293 cells (human, UniProt O95150 1-251)
T1 construct: whole, on cells
T1 sequence (looked up): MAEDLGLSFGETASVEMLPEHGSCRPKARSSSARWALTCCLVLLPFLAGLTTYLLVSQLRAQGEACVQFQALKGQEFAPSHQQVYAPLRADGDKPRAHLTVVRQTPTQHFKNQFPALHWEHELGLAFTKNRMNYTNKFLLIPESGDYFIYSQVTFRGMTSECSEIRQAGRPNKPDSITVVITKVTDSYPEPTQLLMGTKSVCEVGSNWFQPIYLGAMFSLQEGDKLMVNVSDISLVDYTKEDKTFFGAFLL

B1: Clone 17L IgG1 (modified) (antibody)
heavy: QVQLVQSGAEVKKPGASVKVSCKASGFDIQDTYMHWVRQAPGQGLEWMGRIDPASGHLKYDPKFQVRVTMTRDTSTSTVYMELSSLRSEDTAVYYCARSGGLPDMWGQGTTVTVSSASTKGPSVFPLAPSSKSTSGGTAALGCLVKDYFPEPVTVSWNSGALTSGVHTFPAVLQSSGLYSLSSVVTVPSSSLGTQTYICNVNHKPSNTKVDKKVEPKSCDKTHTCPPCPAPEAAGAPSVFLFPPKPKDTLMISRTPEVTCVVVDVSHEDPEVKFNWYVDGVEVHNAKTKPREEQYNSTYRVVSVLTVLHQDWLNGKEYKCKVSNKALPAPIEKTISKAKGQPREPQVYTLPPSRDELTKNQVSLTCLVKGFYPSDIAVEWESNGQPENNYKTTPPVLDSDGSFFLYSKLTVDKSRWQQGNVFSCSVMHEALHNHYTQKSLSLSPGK
light: EIVLTQSPGTLSLSPGERATLSCRASSSVSYMYWYQQKPGQAPRLLIYATSNLASGIPDRFSGSGSGTDFTLTISRLEPEDFAVYYCQQWQGNPRTFGGGTKLEIKRTVAAPSVFIFPPSDEQLKSGTASVVCLLNNFYPREAKVQWKVDNALQSGNSQESVTEQDSKDSTYSLSSTLTLSKADYEKHKVYACEVTHQGLSSPVTKSFNRGEC
notes: also called 17L G1
B2: Clone 47 IgG1 (modified) (antibody)
heavy: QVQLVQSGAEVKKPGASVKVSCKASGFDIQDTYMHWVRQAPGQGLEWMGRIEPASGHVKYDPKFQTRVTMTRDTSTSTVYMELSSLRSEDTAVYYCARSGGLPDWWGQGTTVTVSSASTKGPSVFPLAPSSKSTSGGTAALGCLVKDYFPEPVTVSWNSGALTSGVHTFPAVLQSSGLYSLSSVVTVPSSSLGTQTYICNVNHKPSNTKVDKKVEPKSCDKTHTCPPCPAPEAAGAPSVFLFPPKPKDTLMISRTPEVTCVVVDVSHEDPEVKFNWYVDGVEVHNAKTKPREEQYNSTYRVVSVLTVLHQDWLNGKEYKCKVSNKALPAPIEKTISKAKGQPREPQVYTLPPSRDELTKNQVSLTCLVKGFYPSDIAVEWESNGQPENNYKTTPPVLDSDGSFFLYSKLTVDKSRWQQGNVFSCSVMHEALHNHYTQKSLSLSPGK
light: EIVLTQSPGTLSLSPGERATLSCRASSSVSYMYWYQQKPGQAPRLLIYATSNLASGIPDRFSGSGSGTDFTLTISRLEPEDFAVYYCQQWEGNPRTFGGGTKLEIKRTVAAPSVFIFPPSDEQLKSGTASVVCLLNNFYPREAKVQWKVDNALQSGNSQESVTEQDSKDSTYSLSSTLTLSKADYEKHKVYACEVTHQGLSSPVTKSFNRGEC
notes: also called 47 G1; variant 47
B3: Clone 17L IgG2 (antibody)
heavy: QVQLVQSGAEVKKPGASVKVSCKASGFDIQDTYMHWVRQAPGQGLEWMGRIDPASGHLKYDPKFQVRVTMTRDTSTSTVYMELSSLRSEDTAVYYCARSGGLPDMWGQGTTVTVSSASTKGPSVFPLAPCSRSTSESTAALGCLVKDYFPEPVTVSWNSGALTSGVHTFPAVLQSSGLYSLSSVVTVPSSNFGTQTYTCNVDHKPSNTKVDKTVERKCCVECPPCPAPPVAGPSVFLFPPKPKDTLMISRTPEVTCVVVDVSHEDPEVQFNWYVDGVEVHNAKTKPREEQFNSTFRVVSVLTVVHQDWLNGKEYKCKVSNKGLPAPIEKTISKTKGQPREPQVYTLPPSREEMTKNQVSLTCLVKGFYPSDIAVEWESNGQPENNYKTTPPMLDSDGSFFLYSKLTVDKSRWQQGNVFSCSVMHEALHNHYTQKSLSLSPGK
light: EIVLTQSPGTLSLSPGERATLSCRASSSVSYMYWYQQKPGQAPRLLIYATSNLASGIPDRFSGSGSGTDFTLTISRLEPEDFAVYYCQQWQGNPRTFGGGTKLEIKRTVAAPSVFIFPPSDEQLKSGTASVVCLLNNFYPREAKVQWKVDNALQSGNSQESVTEQDSKDSTYSLSSTLTLSKADYEKHKVYACEVTHQGLSSPVTKSFNRGEC
notes: also called 17L G2
B4: Clone 47 IgG2 (antibody)
heavy: QVQLVQSGAEVKKPGASVKVSCKASGFDIQDTYMHWVRQAPGQGLEWMGRIEPASGHVKYDPKFQTRVTMTRDTSTSTVYMELSSLRSEDTAVYYCARSGGLPDWWGQGTTVTVSSASTKGPSVFPLAPCSRSTSESTAALGCLVKDYFPEPVTVSWNSGALTSGVHTFPAVLQSSGLYSLSSVVTVPSSNFGTQTYTCNVDHKPSNTKVDKTVERKCCVECPPCPAPPVAGPSVFLFPPKPKDTLMISRTPEVTCVVVDVSHEDPEVQFNWYVDGVEVHNAKTKPREEQFNSTFRVVSVLTVVHQDWLNGKEYKCKVSNKGLPAPIEKTISKTKGQPREPQVYTLPPSREEMTKNQVSLTCLVKGFYPSDIAVEWESNGQPENNYKTTPPMLDSDGSFFLYSKLTVDKSRWQQGNVFSCSVMHEALHNHYTQKSLSLSPGK
light: EIVLTQSPGTLSLSPGERATLSCRASSSVSYMYWYQQKPGQAPRLLIYATSNLASGIPDRFSGSGSGTDFTLTISRLEPEDFAVYYCQQWEGNPRTFGGGTKLEIKRTVAAPSVFIFPPSDEQLKSGTASVVCLLNNFYPREAKVQWKVDNALQSGNSQESVTEQDSKDSTYSLSSTLTLSKADYEKHKVYACEVTHQGLSSPVTKSFNRGEC
notes: also called 47 G2
B5: Clone 2 Fab (Fab, V domains shown)
VH: QVQLVQSGAEVKKPGASVKVSCKASGFDIQDTYMHWVRQAPGQGLEWMGRIEPASGHIKYSPKFQGRVTMTRDTSTSTVYMELSSLRSEDTAVYYCARSGGLPDWWGQGTTVTVSS
VL: EIVLTQSPGTLSLSPGERATLSCRASSSVSYMYWYQQKPGQAPRLLIYATSNLASGIPDRFSGSGSGTDFTLTISRLEPEDFAVYYCQQWEGNPRTFGGGTKLEIK
notes: Fab
B6: Clone 46 Fab (Fab, V domains shown)
VH: QVQLVQSGAEVKKPGASVKVSCKASGFDIQDTYMHWVRQAPGQGLEWMGRIEPASGHVKYSPKFQVRVTMTRDTSTSTVYMELSSLRSEDTAVYYCARSGGLPDWWGQGTTVTVSS
VL: EIVLTQSPGTLSLSPGERATLSCRASSSVSYMYWYQQKPGQAPRLLIYATSNLASGIPDRFSGSGSGTDFTLTISRLEPEDFAVYYCQQWEGNPRTFGGGTKLEIK
notes: Fab
B7: Clone 47 Fab (Fab, V domains shown)
VH: QVQLVQSGAEVKKPGASVKVSCKASGFDIQDTYMHWVRQAPGQGLEWMGRIEPASGHVKYDPKFQTRVTMTRDTSTSTVYMELSSLRSEDTAVYYCARSGGLPDWWGQGTTVTVSS
VL: EIVLTQSPGTLSLSPGERATLSCRASSSVSYMYWYQQKPGQAPRLLIYATSNLASGIPDRFSGSGSGTDFTLTISRLEPEDFAVYYCQQWEGNPRTFGGGTKLEIK
notes: Fab
B8: Clone 52 Fab (Fab, V domains shown)
VH: QVQLVQSGAEVKKPGASVKVSCKASGFDIQDTYMHWVRQAPGQGLEWMGRIEPASGHIKYSPKFQGRVTMTRDTSTSTVYMELSSLRSEDTAVYYCARSGGLPDWWGQGTTVTVSS
VL: EIVLTQSPGTLSLSPGERATLSCGASSSVSYMYWYQQKPGQAPRLLIYATSNLASGIPDRFSGSGSGTDFTLTISRLEPEDFAVYYCQQWEGNPRTFGGGTKLEIK
notes: Fab
B9: Clone 17L Fab (Fab, V domains shown)
VH: QVQLVQSGAEVKKPGASVKVSCKASGFDIQDTYMHWVRQAPGQGLEWMGRIDPASGHLKYDPKFQVRVTMTRDTSTSTVYMELSSLRSEDTAVYYCARSGGLPDMWGQGTTVTVSS
VL: EIVLTQSPGTLSLSPGERATLSCRASSSVSYMYWYQQKPGQAPRLLIYATSNLASGIPDRFSGSGSGTDFTLTISRLEPEDFAVYYCQQWQGNPRTFGGGTKLEIK
notes: Fab

The binders below were run against T1, membrane-associated human TL1A on … (assay: flow cytometry, HEK293 cells expressing human TL1A, IgG).

Binding result, binds:
B1, B2, B3, B4

Each binder was assayed against T1, membrane-associated human TL1A on … (assay: flow cytometry, HEK293 cells expressing human TL1A, Fab).
Description: All the Fab variants were tested for binding to membrane-associated human TL1A. For these studies a HEK293 cell line that had been transfected with human TL1A was used. The 293 cells expressing membrane bound human TL1A were maintained in DMEM containing L-glutamine, glucose, sodium pyruvate, and phenol red (ThermoFisher cat #11995-065) plus 10% fetal bovine serum, 1× penicillin-streptomycin (Fisher cat #15140122) and 2 μg/ml puromycin (Gibco cat #A11138-03) in a 37° C. incubator with 5% CO₂. Three days prior to the assay, a T-75 flask was seeded with 3×10⁶ cells so that the flask was 90-95% confluent on the day of the assay. The media was aspirated and the cell monolayer was gently washed with 5 ml PBS. Adherent cells were removed by repeatedly pipetting 10 ml ice cold 1% BSA/PBS against the monolayer. The cells were counted and 5×10⁵ were aliquoted for each sample to be analyzed. The cells were collected by centrifuging at 300×g at 4° C. for 5 minutes and the wash was discarded. The cells were resuspended in 100 μl Fab or IgG diluted in 1% BSA/PBS and placed on ice for 30 min. Next, the cells were washed with 1 ml 1% BSA/PBS and collected by centrifuging at 300×g at 4° C. for 5 min. The wash was discarded and 100 μl secondary goat F(ab′)2 anti-human kappa FITC (Southern Biotech cat #2062-02) or goat F(ab′)2 anti-human IgG PE (Southern Biotech cat #2043-09) conjugate, diluted 1:200 in BSA/PBS was added. Cells were placed on ice for 30 min. Finally, the cells were washed with 1 ml BSA/PBS, collected by centrifuging at 300×g at 4° C. for 5 min. The wash was removed and the cells were resuspended in 500 μl 1% BSA/PBS. One drop of Sytox AADvanced ReadyFlow Reagent (ThermoFisher cat #R37173) was added per sample and the samples were analyzed on the Attune NxT Flow Cytometer (ThermoFisher).

Binding result, binds:
B5, B6, B7, B8, B9
